# Earlier results in patent publication US20200069786A1, “COMPOSITION AND PROCESS FOR PREPARING VACCINE” (TREOS BIO ZRT., priority 2018, published 2020).
# Like-named read-outs stand apart in the source and are kept apart here.
# B1: NR6A1 (protein, UniProt Q15406 1-480, looked up)
# Nuclear receptor subfamily 6 …: MERDEPPPSGGGGGGGSAGFLEPPAALPPPPRNGFCQDELAELDPGTISVSDDRAEQRTCLICGDRATGLHYGIISCEGCKGFFKRSICNKRVYRCSRDKNCVMSRKQRNRCQYCRLLKCLQMGMNRKAIREDGMPGGRNKSIGPVQISEEEIERIMSGQEFEEEANHWSNHGDSDHSSPGNRASESNQPSPGSTLSSSRSVELNGFMAFREQYMGMSVPPHYQYIPHLFSYSGHSPLLPQQARSLDPQSYSLIHQLLSAEDLEPLGTPMLIEDGYAVTQAELFALLCRLADELLFRQIAWIKKLPFFCELSIKDYTCLLSSTWQELILLSSLTVYSKQIFGELADVTAKYSPSDEELHRFSDEGMEVIERLIYLYHKFHQLKVSNEEYACMKAINFLNQDIRGLTSASQLEQLNKRYWYICQDFTEYKYTHQPNRFPDLMMCLPEIRYIAGKMVNVPLEQLPLLFKVVLHSCKTSVGKE
# B2: ODF1 (protein, UniProt Q14990 1-250, looked up)
# Outer dense fiber protein 1: MAALSCLLDSVRRDIKKVDRELRQLRCIDEFSTRCLCDLYMHPYCCCDLHPYPYCLCYSKRSRSCGLCDLYPCCLCDYKLYCLRPSLRSLERKAIRAIEDEKRELAKLRRTTNRILASSCCSSNILGSVNVCGFEPDQVKVRVKDGKVCVSAERENRYDCLGSKKYSYMNICKEFSLPPCVDEKDVTYSYGLGSCVKIESPCYPCTSPCSPCSPCSPCNPCSPCNPCSPYDPCNPCYPCGSRFSCRKMIL
# B3: ODF2 (protein, UniProt Q5BJF6 1-829, looked up)
# Outer dense fiber protein 2: MSASSSGGSPRFPSCGKNGVTSLTQKKVLRAPCGAPSVTVTKSHKRGMKGDTVNVRRSVRVKTKVPWMPPGKSSARPVGCKWENPPHCLEITPPSSEKLVSVMRLSDLSTEDDDSGHCKMNRYDKKIDSLMNAVGCLKSEVKMQKGERQMAKRFLEERKEELEEVAHELAETEHENTVLRHNIERMKEEKDFTILQKKHLQQEKECLMSKLVEAEMDGAAAAKQVMALKDTIGKLKTEKQMTCTDINTLTRQKELLLQKLSTFEETNRTLRDLLREQHCKEDSERLMEQQGALLKRLAEADSEKARLLLLLQDKDKEVEELLQEIQCEKAQAKTASELSKSMESMRGHLQAQLRSKEAENSRLCMQIKNLERSGNQHKAEVEAIMEQLKELKQKGDRDKESLKKAIRAQKERAEKSEEYAEQLHVQLADKDLYVAEALSTLESWRSRYNQVVKEKGDLELEIIVLNDRVTDLVNQQQTLEEKMREDRDSLVERLHRQTAEYSAFKLENERLKASFAPMEDKLNQAHLEVQQLKASVKNYEGMIDNYKSQVMKTRLEADEVAAQLERCDKENKILKDEMNKEIEAARRQFQSQLADLQQLPDILKITEAKLAECQDQLQGYERKNIDLTAIISDLRSRIEHQGDKLEMAREKHQASQKENKQLSLKVDELERKLEATSAQNIEFLQVIAKREEAIHQSQLRLEEKTRECGTLARQLESAIEDARRQVEQTKEHALSKERAAQNKILDLETQLSRTKTELSQLRRSRDDADRRYQSRLQDLKDRLEQSESTNRSMQNYVQFLKSSYANVFGDGPYSTFLTSSPIRSRSPPA
# B4: SART3 (protein, UniProt Q15020 2-963, looked up)
# Spliceosome associated factor …: ATAAETSASEPEAESKAGPKADGEEDEVKAARTRRKVLSRAVAAATYKTMGPAWDQQEEGVSESDGDEYAMASSAESSPGEYEWEYDEEEEKNQLEIERLEEQLSINVYDYNCHVDLIRLLRLEGELTKVRMARQKMSEIFPLTEELWLEWLHDEISMAQDGLDREHVYDLFEKAVKDYICPNIWLEYGQYSVGGIGQKGGLEKVRSVFERALSSVGLHMTKGLALWEAYREFESAIVEAARLEKVHSLFRRQLAIPLYDMEATFAEYEEWSEDPIPESVIQNYNKALQQLEKYKPYEEALLQAEAPRLAEYQAYIDFEMKIGDPARIQLIFERALVENCLVPDLWIRYSQYLDRQLKVKDLVLSVHNRAIRNCPWTVALWSRYLLAMERHGVDHQVISVTFEKALNAGFIQATDYVEIWQAYLDYLRRRVDFKQDSSKELEELRAAFTRALEYLKQEVEERFNESGDPSCVIMQNWARIEARLCNNMQKARELWDSIMTRGNAKYANMWLEYYNLERAHGDTQHCRKALHRAVQCTSDYPEHVCEVLLTMERTEGSLEDWDIAVQKTETRLARVNEQRMKAAEKEAALVQQEEEKAEQRKRARAEKKALKKKKKIRGPEKRGADEDDEKEWGDDEEEQPSKRRRVENSIPAAGETQNVEVAAGPAGKCAAVDVEPPSKQKEKAASLKRDMPKVLHDSSKDSITVFVSNLPYSMQEPDTKLRPLFEACGEVVQIRPIFSNRGDFRGYCYVEFKEEKSALQALEMDRKSVEGRPMFVSPCVDKSKNPDFKVFRYSTSLEKHKLFISGLPFSCTKEELEEICKAHGTVKDLRLVTNRAGKPKGLAYVEYENESQASQAVMKMDGMTIKENIIKVAISNPPQRKVPEKPETRKAPGGPMLLPQTYGARGKGRTQLSLLPRALQRPSAAAPQAENGPAAAPAVAAPAATEAPKMSNADFAKLFLRK
# B5: PAGE1 (protein, UniProt O75459 1-146, looked up)
# P antigen family member 1: MGFLRRLIYRRRPMIYVESSEESSDEQPDEVESPTQSQDSTPAEEREDEGASAAQGQEPEADSQELVQPKTGCELGDGPDTKRVCLRNEEQMKLPAEGPEPEADSQEQVHPKTGCERGDGPDVQELGLPNPEEVKTPEEDEGQSQP
# B6: SPATA19 (protein, UniProt Q7Z5L4 25-167, looked up)
# Spermatogenesis-associated …: SSDIDVVESEAVSVLHHWLKKTEEEASRGIKEKLSINHPSQGVREKMSTDSPPTHGQDIHVTRDVVKHHLSKSDLLANQSQEVLEERTRIQFIRWSHTRIFQVPSEMTEDIMRDRIEQVRRSISRLTDVSAQDFSMRPSSSDC
# B7: MCAK (protein, UniProt Q99661 2-725, looked up)
# Kinesin-like protein KIF2C: AMDSSLQARLFPGLAIKIQRSNGLIHSANVRTVNLEKSCVSVEWAEGGATKGKEIDFDDVAAINPELLQLLPLHPKDNLPLQENVTIQKQKRRSVNSKIPAPKESLRSRSTRMSTVSELRITAQENDMEVELPAAANSRKQFSVPPAPTRPSCPAVAEIPLRMVSEEMEEQVHSIRGSSSANPVNSVRRKSCLVKEVEKMKNKREEKKAQNSEMRMKRAQEYDSSFPNWEFARMIKEFRATLECHPLTMTDPIEEHRICVCVRKRPLNKQELAKKEIDVISIPSKCLLLVHEPKLKVDLTKYLENQAFCFDFAFDETASNEVVYRFTARPLVQTIFEGGKATCFAYGQTGSGKTHTMGGDLSGKAQNASKGIYAMASRDVFLLKNQPCYRKLGLEVYVTFFEIYNGKLFDLLNKKAKLRVLEDGKQQVQVVGLQEHLVNSADDVIKMIDMGSACRTSGQTFANSNSSRSHACFQIILRAKGRMHGKFSLVDLAGNERGADTSSADRQTRMEGAEINKSLLALKECIRALGQNKAHTPFRESKLTQVLRDSFIGENSRTCMIATISPGISSCEYTLNTLRYADRVKELSPHSGPSGEQLIQMETEEMEACSNGALIPGNLSKEEEELSSQMSSFNEAMTQIRELEEKAMEELKEIIQQGPDWLELSEMTEQPDYDLETFVNKAESALAQQAKHFSALRDVIKALRLAMQLEEQASRQISSKKRPQ
# B8: ODF3 (protein, UniProt Q96PU9 1-254, looked up)
# Ciliary microtubule …: MTEEVWMGTWRPHRPRGPIMALYSSPGPKYLIPPTTGFMKHTPTKLRAPAYSFRGAPMLLAENCSPGPRYNVNPKILRTGKDLGPAYSILGRYQTKTMLTPGPGDYFPEKSTKYVFDSAPSHSISARTKAFRVDSTPGPAAYMLPMVMGPNTVGKASQPSFSIKGRSKLGGFSDDLHKTPGPAAYRQTDVRVTKFKAPQYTMAARVEPPGDKTLKPGPGAHSPEKVTLTKPCAPVVTFGIKHSDYMTPLLVDVE
# B9: TEX101 (protein, UniProt Q9BY14 26-222, looked up)
# Testis-expressed protein 101: LYCQKGLSMTVEADPANMFNWTTEEVETCDKGALCQETILIIKAGTETAILATKGCIPEGEEAITIVQHSSPPGLIVTSYSNYCEDSFCNDKDSLSQFWEFSETTASTVSTTLHCPTCVALGTCFSAPSLPCPNGTTRCYQGKLEITGGGIESSVEVKGCTAMIGCRLMSGILAVGPMFVREACPHQLLTQPRKTEN
# B10: PRSS55 (protein, UniProt Q6UWB4 19-352, looked up)
# Serine protease 55: GPRTPLPEAGVAILGRARGAHRPQPPHPPSPVSECGDRSIFEGRTRYSRITGGMEAEVGEFPWQVSIQARSEPFCGGSILNKWWILTAAHCLYSEELFPEELSVVLGTNDLTSPSMEIKEVASIILHKDFKRANMDNDIALLLLASPIKLDDLKVPICLPTQPGPATWRECWVAGWGQTNAADKNSVKTDLMKAPMVIMDWEECSKMFPKLTKNMLCAGYKNESYDACKGDSGGPLVCTPEPGEKWYQVGIISWGKSCGEKNTPGIYTSLVNYNLWIEKVTQLEGRPFNAEKRRTSVKQKPMGSPVSGVPEPGSPRSWLLLCPLSHVLFRAILY
# B11: TTK (protein, UniProt P33981 1-857, looked up)
# Dual specificity protein …: MESEDLSGRELTIDSIMNKVRDIKNKFKNEDLTDELSLNKISADTTDNSGTVNQIMMMANNPEDWLSLLLKLEKNSVPLSDALLNKLIGRYSQAIEALPPDKYGQNESFARIQVRFAELKAIQEPDDARDYFQMARANCKKFAFVHISFAQFELSQGNVKKSKQLLQKAVERGAVPLEMLEIALRNLNLQKKQLLSEEEKKNLSASTVLTAQESFSGSLGHLQNRNNSCDSRGQTTKARFLYGENMPPQDAEIGYRNSLRQTNKTKQSCPFGRVPVNLLNSPDCDVKTDDSVVPCFMKRQTSRSECRDLVVPGSKPSGNDSCELRNLKSVQNSHFKEPLVSDEKSSELIITDSITLKNKTESSLLAKLEETKEYQEPEVPESNQKQWQSKRKSECINQNPAASSNHWQIPELARKVNTEQKHTTFEQPVFSVSKQSPPISTSKWFDPKSICKTPSSNTLDDYMSCFRTPVVKNDFPPACQLSTPYGQPACFQQQQHQILATPLQNLQVLASSSANECISVKGRIYSILKQIGSGGSSKVFQVLNEKKQIYAIKYVNLEEADNQTLDSYRNEIAYLNKLQQHSDKIIRLYDYEITDQYIYMVMECGNIDLNSWLKKKKSIDPWERKSYWKNMLEAVHTIHQHGIVHSDLKPANFLIVDGMLKLIDFGIANQMQPDTTSVVKDSQVGTVNYMPPEAIKDMSSSRENGKSKSKISPKSDVWSLGCILYYMTYGKTPFQQIINQISKLHAIIDPNHEIEFPDIPEKDLQDVLKCCLKRDPKQRISIPELLAHPYVQIQTHPVNQMAKGTTEEMKYVLGQLVGLNSPNSILKAAKTLYEHYSGGESHNSSSSKTFEKKRGKK
# System: TSA
# Details: for TSA Expression Rate (ER): BREAST
# [1] = TSA expression rate in PROSTATE cancer
Molecule,Expression Rate (ER) % [1] [%],other results
B1,25,
B2,10,
B3,10,
B4,,Expression Rate (ER) % (TSA expression rate in PEDIATRIC): 73%
B5,,Expression Rate (ER) % (TSA expression rate in CRC): 0%
B6,88,
B7,,Expression Rate (ER) % (TSA expression rate in CRC): 100%
B8,0,TSA Expression Rate (ER): 0%
B9,,TSA Expression Rate (ER): 0%
B10,1,
B11,,Expression Rate (ER) % (TSA expression rate in Esophageal): 97%
